Laboratory results taken from patent US20230406922A1 (SIMCERE ZAIMING PHARMACEUTICAL, published 2023).

T1: cynomolgus monkey CD19 on peripheral blood B cells (cynomolgus monkey (Macaca fascicularis), UniProt A0A2K5W8L9 20-557)
T1 construct: whole, on cells; also called cynomolgus monkey B cells
T1 sequence: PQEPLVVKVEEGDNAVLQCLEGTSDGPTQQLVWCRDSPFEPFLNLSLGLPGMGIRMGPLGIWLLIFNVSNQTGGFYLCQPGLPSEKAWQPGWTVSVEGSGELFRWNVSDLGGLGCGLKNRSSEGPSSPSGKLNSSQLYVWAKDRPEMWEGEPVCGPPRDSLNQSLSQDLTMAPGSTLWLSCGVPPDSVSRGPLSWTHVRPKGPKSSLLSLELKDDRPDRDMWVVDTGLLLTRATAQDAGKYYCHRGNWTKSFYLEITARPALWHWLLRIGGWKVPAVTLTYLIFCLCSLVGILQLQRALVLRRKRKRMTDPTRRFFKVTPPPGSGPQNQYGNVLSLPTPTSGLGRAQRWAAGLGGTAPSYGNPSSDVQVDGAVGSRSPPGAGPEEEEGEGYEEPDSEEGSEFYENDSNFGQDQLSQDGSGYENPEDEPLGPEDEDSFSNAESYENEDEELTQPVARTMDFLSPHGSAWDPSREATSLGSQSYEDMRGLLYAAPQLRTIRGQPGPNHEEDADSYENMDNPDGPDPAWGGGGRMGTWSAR

T2: human CD19, full length, on cells (human, UniProt P15391 20-556)
T2 construct: the endogenous CD19 of Raji cells is put under the same molecule (the cell type stands under assay); The entry holds the signal peptide; also called CHO-K1-human CD19; CHO-K1-human CD19-2C8
T2 sequence: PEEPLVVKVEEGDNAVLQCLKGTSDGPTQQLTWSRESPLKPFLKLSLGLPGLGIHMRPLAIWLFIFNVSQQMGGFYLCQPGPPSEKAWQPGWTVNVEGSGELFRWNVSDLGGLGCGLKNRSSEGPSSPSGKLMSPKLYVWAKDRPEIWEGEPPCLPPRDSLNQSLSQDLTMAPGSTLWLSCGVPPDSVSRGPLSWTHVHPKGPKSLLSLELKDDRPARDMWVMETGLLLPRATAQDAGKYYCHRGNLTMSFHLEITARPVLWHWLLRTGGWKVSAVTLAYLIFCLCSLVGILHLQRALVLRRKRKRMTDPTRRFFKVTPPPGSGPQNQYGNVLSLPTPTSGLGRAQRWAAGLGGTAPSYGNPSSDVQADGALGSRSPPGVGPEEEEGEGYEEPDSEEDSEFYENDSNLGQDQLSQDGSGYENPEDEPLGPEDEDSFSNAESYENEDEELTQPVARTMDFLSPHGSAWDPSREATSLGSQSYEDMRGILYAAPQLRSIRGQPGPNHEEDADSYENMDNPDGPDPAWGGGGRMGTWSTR

T3: human CD19 exon1-3-His protein (human, UniProt P15391 20-186)
T3 construct: Made in HEK293E cells, purified on nickel column; not shown: His tag
T3 sequence: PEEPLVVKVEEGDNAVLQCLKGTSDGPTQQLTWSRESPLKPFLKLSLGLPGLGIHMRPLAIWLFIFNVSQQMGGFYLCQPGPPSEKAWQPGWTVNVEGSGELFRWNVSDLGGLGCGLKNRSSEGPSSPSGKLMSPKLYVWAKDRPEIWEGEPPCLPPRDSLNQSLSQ


How the values were obtained:
monkey CD19-his protein = monkey CD19-his protein (monkey); experiment: ELISA, monkey CD19 coated
Method: After incubation for 2 h at 37° C., the plate was washed 3 times with PBS. […] After incubation for 1 h at 37° C., the plate was washed 5 times with PBS. A TMB substrate was added at 50 μL/well. After incubation at room temperature for 10 min, a stop solution (1.0 N HCl) was added at 50 μL/well. The OD450 nm values were read on an ELISA microplate reader (Multimode Plate Reader, EnSight, purchased from Perkin Elmer). […] The negative control antibody mIgG1 was an antibody against hen egg lysozyme, anti-hel-mIgG1 (purchased from Biointron, Cat. No. B118301), and the data in the table were OD450 nm values.
IgG control was mIgG1, S003-NB151-89 was a clone that is selected from a library constructed by peripheral blood collected from Alpaca immunized by human CD19-His and can bind to a monkey CD19-His protein, and was used as a positive control, and the data in the table were OD450 nm values.

[1] = biological target: T1, cynomolgus monkey CD19 on peripheral …; experiment: FACS on cynomolgus monkey PBMC, gated on CD20-positive B cells
Method: Monkey peripheral blood mononuclear cells were extracted from fresh cynomolgus monkey peripheral blood (purchased from Shanghai Medicilon Inc.) according to Ficoll-Paque Plus (purchased from GE Healthcare, Cat. No. 171440-02). […] The cells were incubated at room temperature for 1 h. […] The cells were incubated at room temperature for 30 min in the dark, washed 5 times, gently resuspended in PBS, and assayed and analyzed by FACS (FACS Canto™, purchased from BD Biosciences), in which CD20 was used as a marker for B cells.

[2] = biological target: T2, human CD19, full length, on cells; experiment: FACS on CHO-K1-human CD19 cells
Excerpt: (§1) The desired cells were expanded to a logarithmic growth phase in a T-75 cell culture flask. For adherent cells CHO-K1, the culture medium was removed by pipetting, and the cells were washed twice with a PBS buffer, digested with trypsin, and washed twice with a PBS buffer again after the digestion was stopped. For suspension cells Raji, the medium supernatant was discarded by direct centrifugation, and the cell pellet was washed twice with PBS. After cell counting of the cells obtained in the last step, the cell pellet was resuspended to 2×10⁶ cells/mL with a blocking solution [PBS+2% (w/w) BSA] and added into a 96-well FACS reaction plate at 50 μL/well. […] After the plate was centrifuged and washed 5 times with a PBS buffer, the results were assayed and analyzed by FACS (FACS Canto™, purchased from BD Biosciences). Data analysis was performed by software (CellQuest) to obtain the mean fluorescence intensity (MFI) of the cells. Then, analysis was performed by software (GraphPad Prism8), data were fitted, and EC₅₀ values were calculated.

[3] = biological target: T3, human CD19 exon1-3-His protein; experiment: ELISA on coated human CD19 exon1-3-His
[4] = biological target: T2, human CD19, full length, on cells; experiment: FACS on Raji cells
Excerpt: as §1

Row | Binder | OD450 at 0.0001 nM (monkey CD19-his protein) [OD450] | OD450 at 0.001 nM (monkey CD19-his protein) [OD450] | OD450 at 0.01 nM (monkey CD19-his protein) [OD450] | OD450 at 0.10 nM (monkey CD19-his protein) [OD450] | OD450 at 1.00 nM (monkey CD19-his protein) [OD450] | OD450 at 10.00 nM (monkey CD19-his protein) [OD450] | OD450 at 100.00 nM (monkey CD19-his protein) [OD450] | proportion of positive cells to B cells (%) at 1 nM [1] [%] | proportion of positive cells to B cells (%) at 10 nM [1] [%] | proportion of positive cells to B cells (%) at 100 nM [1] [%] | EC50 [2] [nM] | maximum mean fluorescence intensity [2] [MFI] | binding result [3] | EC50 [4] [nM] | maximum mean fluorescence intensity [4] [MFI]
1 | FMC63.26-mIgG1 (antibody, V domains shown, Humanized FMC63; also called FMC63-L2H6) VH: EVTLKESGPVLVKPTETLTLTCTVSGFSLPDYGVSWIRQPPGKALEWLAVIWGSETTYYNSALKSRLTISKDTSKSQVVLTMTNMDPVDTATYYCAKHYYYGGSYAMDYWGQGTTVTVSS VL: DIQMTQSPSSLSASVGDRVTITCRASQDISKYLNWYQQKPGGAVKLLIYHTSRLHSGVPSRFSGSGSGTDYTLTISSLQPEDFATYYCQQGNTLPYTFGGGTKVEIKR | 0.05 | 0.05 | 0.05 | 0.05 | 0.05 | 0.06 | 0.1 | 3 | 6 | 39 | 1.12 | 31500 | no binding (tested: 100 nM) | 0.32 | 8500
2 | FMC63.27-mIgG1 (antibody, V domains shown, Humanized FMC63; also called FMC63-L2H7) VH: EVTLKESGPVLVKPTETLTLTCTVSGVSLPDYGVSWIRQPPGKALEWLAVIWGSETTYYNSALKSRLTISKDNSKSQVVLTMTNMDPVDTATYYCAKHYYYGGSYAMDYWGQGTTVTVSS VL: DIQMTQSPSSLSASVGDRVTITCRASQDISKYLNWYQQKPGGAVKLLIYHTSRLHSGVPSRFSGSGSGTDYTLTISSLQPEDFATYYCQQGNTLPYTFGGGTKVEIKR | 0.05 | 0.05 | 0.05 | 0.05 | 0.05 | 0.05 | 0.1 |  |  |  | 1.33 | 29400 | no binding (tested: 100 nM) | 0.3 | 7840
3 | FMC63.25-mIgG1 (antibody, V domains shown, Humanized FMC63; also called FMC63-L2H5) VH: EVTLKESGPVLVKPTETLTLTCTVSGFSLSDYGVSWIRQPPGKALEWLAVIWGSETTYYNSALKSRLTISKDTSKSQVVLTMTNMDPVDTATYYCAKHYYYGGSYAMDYWGQGTTVTVSS VL: DIQMTQSPSSLSASVGDRVTITCRASQDISKYLNWYQQKPGGAVKLLIYHTSRLHSGVPSRFSGSGSGTDYTLTISSLQPEDFATYYCQQGNTLPYTFGGGTKVEIKR | 0.1 | 0.1 | 0.09 | 0.08 | 0.08 | 0.1 | 0.12 | 4 | 10 | 60 | 0.79 | 33100 | no binding (tested: 100 nM) | 0.33 | 9170
